Measurements taken from paper PMC12589211, “Development of lisinopril radioconjugates for nuclear imaging of the angiotensin converting enzyme” (European Journal of Nuclear Medicine and Molecular Imaging, 2025).

Columns and labels:
[1] = tested on: human blood plasma proteins; assay: in vitro; assay type: in vitro ADME; details: 30 min, 0.1 µM
Procedure: (§1) The n-octanol/phosphate buffered saline (PBS) distribution coefficients (logD values) of the radioconjugates (20 MBq/nmol) were determined using the shake-flask method, as previously reported (Supplementary material). The binding affinity of the radioconjugates (20 MBq/nmol) to serum proteins was assessed using an ultrafiltration assay as previously reported (Supplementary Material). Methods: The plasma protein binding of the radioconjugates (20 MBq/nmol) was assessed using mouse blood plasma (Lot N°: 32321, Rockland Immunochemicals, Inc., USA,; concentration of mouse serum albumin (MSA): ⁓550 µM) and human blood plasma (Stiftung Blutspende SRK Aargau-Solothurn, Switzerland; concentration of human serum albumin (HSA): ⁓800 µM), respectively. After incubation in mouse and human blood plasma (0.3 MBq in 150 μL) for 30 min at 37 °C, the samples were cooled on ice and diluted with ice-cold PBS (150 μL). The plasma protein-bound fraction was separated from the free (plasma protein-unbound) fraction of each sample by means of Amicon centrifugal filters (Amicon Ultra, 0.5 mL, Merck Millipore; cutoff 10 kDa) by ultrafiltration using a centrifuge (14000 rcf, 30 min at 4 °C). Afterwards, the filter inserts were inverted and centrifuged again (200 rcf) for 3 min to recover the protein-bound fraction of the radioconjugates. The activities of the free radioconjugates in the filtrate, as well as in the filter insert and the plasma protein-bound radioconjugate (bound), were counted for activity separately using a γ-counter (Wallac Wizard 1480, PerkinElmer). The total activity (total) was determined as the sum of the activities in the filtrate, filter insert, and protein-bound fractions. The percentage of radioconjugate bound to MSA and HSA was calculated as Abound/Atotal*100. The results were presented as average ± SD of 3 independent experiments.

[2] = tested on: mouse blood plasma proteins; assay: in vitro; assay type: in vitro ADME; details: 30 min, 0.1 µM
Procedure: as §1

[3] = in vivo; details: female, mouse, iv, 3 MBq; for tissue uptake at 1 h / tissue uptake at 3 h: total radioactivity
Procedure: All applicable international, national, and/or institutional guidelines for the care and use of laboratory animals were followed and the animal experiments were carried out according to the guidelines of the Swiss Regulations for Animal Welfare. Preclinical studies were ethically approved by the Cantonal Committee of Animal Experimentation and permitted by the responsible cantonal authorities (License N° 75743). Five-week-old female Crl: CD1-Foxn^nu (CD1/nude) mice were obtained from Charles River Laboratories (Sulzfeld, Germany) and fed with standard rodent chow ad libitum. The mice were subcutaneously inoculated with HEK-ACE (8 × 10^6 cells in 100 µL PBS) on the left shoulder and approximately one week later with HEK-ACE2 cells (4–6 × 10^6 cells in 100 µL PBS) on the right shoulder. Imaging and biodistribution studies were performed 2‒4 weeks later when the xenografts reached a size of 100–300 mm^3.
Mice were intravenously injected with 3 MBq [^67Ga]Ga-DOTA-LIS-02 or 3 MBq [^67Ga]Ga-NODAGA-LIS-02 (0.5 nmol, 100 µL) or 3 MBq [^44Sc]Sc-DOTA-LIS-02 (1 nmol, 100 µL) diluted in saline containing 0.05% bovine serum albumin (BSA). The mice were sacrificed 1 h and 3 h after administration of the respective radioconjugate. Selected tissues and organs were collected, weighed and counted for activity using the γ-counter. The results were listed as a percentage of the injected activity per gram of tissue mass (% IA/g), using counts of a defined volume of the original injection solution measured at the same time to calculate decay-corrected values. Statistical analysis was performed by applying a regular one-way ANOVA test with a Tukey’s multiple comparison post‐hoc test to compare the data of the radioconjugates. A p-value of < 0.05 was considered as statistically significant (GraphPad Prism software, version 8.3.1).

[4] = physchem; assay type: physicochemical; details: pH 7.4, logD value (n-octanol/PBS distribution coefficient)
Procedure: The n-octanol/phosphate buffered saline (PBS) distribution coefficients (logD values) of the radioconjugates (20 MBq/nmol) were determined using the shake-flask method, as previously reported (Supplementary material). The binding affinity of the radioconjugates (20 MBq/nmol) to serum proteins was assessed using an ultrafiltration assay as previously reported (Supplementary Material). Methods: A fixed amount of the respective radioconjugate (0.5 MBq, 25 µL) was added to radio-immunoassay (RIA) tubes containing a mixture of PBS pH 7.4 (1475 µL) and n-octanol (1500 µL). After vortexing vigorously for 1 min, the tubes were centrifuged (560 rcf) for 6 min to obtain phase separation. The activity in the organic and aqueous phases was determined using a γ-counter (Wallac Wizard 1480, PerkinElmer). The distribution coefficients were expressed as the logarithm of the ratio of counts per minute (cpm) measured in the n-octanol phase to the cpm measured in the PBS pH 7.4 phase and indicated as the average of three independent measurements ± SD, each performed with five replicates.

[5] = in vitro; assay type: in vitro ADME; details: plasma
Procedure: as §1

[6] = CD1/nude (Crl:CD1-Foxn nu), 1 h
[7] = CD1/nude (Crl:CD1-Foxn nu), 3 h
[8] = Crl:CD1-Foxn^nu (CD1/nude), 1 h
[9] = Crl:CD1-Foxn^nu (CD1/nude), 3 h
[10] = human, Fraction bound to human blood plasma proteins
[11] = mouse, Fraction bound to mouse blood plasma proteins
[12] = CD1/nude (Crl:CD1-Foxn nu), Biodistribution, Bone
[13] = CD1/nude (Crl:CD1-Foxn nu), Biodistribution, HEK-ACE xgft
[14] = CD1/nude (Crl:CD1-Foxn nu), Biodistribution, Muscle
[15] = CD1/nude (Crl:CD1-Foxn nu), Biodistribution, Salivary glands
[16] = CD1/nude (Crl:CD1-Foxn nu), Biodistribution, Stomach
[17] = Crl:CD1-Foxn^nu (CD1/nude), Biodistribution, Blood
[18] = Crl:CD1-Foxn^nu (CD1/nude), Biodistribution, Heart
[19] = Crl:CD1-Foxn^nu (CD1/nude), Biodistribution, Kidneys
[20] = Crl:CD1-Foxn^nu (CD1/nude), Biodistribution, Lung
[21] = Crl:CD1-Foxn^nu (CD1/nude), Biodistribution, Spleen
[22] = CD1/nude (Crl:CD1-Foxn nu), Biodistribution, Intestines
[23] = CD1/nude (Crl:CD1-Foxn nu), Biodistribution, Liver

O=C(O)CN1CCN(CC(=O)O)CCN(CC(=O)NCCCC[C@H](NC(=O)CCCCCCCNC(=O)NCCCC[C@H](N[C@@H](CCc2ccccc2)C(=O)O)C(=O)N2CCC[C@H]2C(=O)O)C(=O)O)CCN(CC(=O)O)CC1 [[^44Sc]Sc-DOTA-LIS-02] [metal not drawn]
Fraction bound to human blood plasma proteins [1]: 49 ± 2% | Fraction bound to mouse blood plasma proteins [2]: 42 ± 4% | Biodistribution, Blood [3, 6]: 0.24 ± 0.03 %IA/g | Biodistribution, Bone [3, 6]: 0.17 ± 0.02 %IA/g | Biodistribution, Intestines [3, 6]: 0.16 ± 0.02 %IA/g | Biodistribution, Liver [3, 6]: 0.14 ± 0.01 %IA/g | Biodistribution, Muscle [3, 6]: 0.16 ± 0.02 %IA/g | Biodistribution, Salivary glands [3, 6]: 0.19 ± 0.02 %IA/g | Biodistribution, Stomach [3, 6]: 0.22 ± 0.15 %IA/g | Biodistribution, Bone [3, 7]: 0.07 ± 0.03 %IA/g | Biodistribution, Intestines [3, 7]: 0.05 ± 0.01 %IA/g | Biodistribution, Liver [3, 7]: 0.09 ± 0.01 %IA/g | Biodistribution, Muscle [3, 7]: 0.07 ± 0.04 %IA/g | Biodistribution, Salivary glands [3, 7]: 0.09 ± 0.05 %IA/g | Biodistribution, Stomach [3, 7]: <0.05 %IA/g | Biodistribution, Heart [3, 8]: 0.18 ± 0.03 %IA/g | Biodistribution, Kidneys [3, 8]: 6.1 ± 0.8 %IA/g | Biodistribution, Lung [3, 8]: 2.0 ± 0.6 %IA/g | Biodistribution, Spleen [3, 8]: 0.14 ± 0.05 %IA/g | Biodistribution, Blood [3, 9]: <0.05 %IA/g | Biodistribution, Heart [3, 9]: <0.05 %IA/g | Biodistribution, Kidneys [3, 9]: 0.75 ± 0.07 %IA/g | Biodistribution, Lung [3, 9]: 0.13 ± 0.02 %IA/g | Biodistribution, Spleen [3, 9]: 0.06 ± 0.01 %IA/g

O=C(O)CN1CCN(CC(=O)O)CCN(CC(=O)NCCCC[C@H](NC(=O)CCCCCNC(=O)NCCCC[C@H](N[C@@H](CCc2ccccc2)C(=O)O)C(=O)N2CCC[C@H]2C(=O)O)C(=O)O)CCN(CC(=O)O)CC1 [[^67Ga]Ga-DOTA-LIS-01, metal not drawn]
logD [4]: -5.47 ± 0.17 | fraction unbound at 30 min, 0.1 µM [5, 10]: 0.55 | fraction unbound at 30 min, 0.1 µM [5, 11]: 0.54

O=C(O)CN1CCN(CC(=O)O)CCN(CC(=O)NCCCC[C@H](NC(=O)CCCCCCCNC(=O)NCCCC[C@H](N[C@@H](CCc2ccccc2)C(=O)O)C(=O)N2CCC[C@H]2C(=O)O)C(=O)O)CCN(CC(=O)O)CC1 [[^67Ga]Ga-DOTA-LIS-02, metal not drawn]
fraction unbound at 30 min, 0.1 µM [5, 10]: 0.5 ± 0.01 | fraction unbound at 30 min, 0.1 µM [5, 11]: 0.54 | tissue uptake at 1 h ([3]; CD1/nude (Crl:CD1-Foxn nu)): 0.24 ± 0.01 %ID/g | tissue uptake at 3 h ([3]; CD1/nude (Crl:CD1-Foxn nu)): 0.08 ± 0.03 %ID/g | tissue uptake at 1 h [3, 12]: 0.14 ± 0.01 %ID/g | tissue uptake at 3 h [3, 12]: < 0.05 %ID/g | tissue uptake at 1 h [3, 13]: 14 ± 3 %ID/g | tissue uptake at 3 h [3, 13]: 16 ± 1 %ID/g | tissue uptake at 1 h [3, 14]: 0.1 ± 0.03 %ID/g | tissue uptake at 3 h [3, 14]: < 0.05 %ID/g | tissue uptake at 1 h [3, 15]: 0.18 ± 0.04 %ID/g | tissue uptake at 3 h [3, 15]: < 0.05 %ID/g | tissue uptake at 1 h [3, 16]: 0.16 ± 0.05 %ID/g | tissue uptake at 3 h [3, 17]: < 0.05 %ID/g | tissue uptake at 1 h [3, 18]: 0.2 ± 0.06 %ID/g | tissue uptake at 3 h [3, 18]: < 0.05 %ID/g | tissue uptake at 1 h [3, 19]: 6.3 ± 1 %ID/g | tissue uptake at 3 h [3, 19]: 1.1 ± 0.2 %ID/g | tissue uptake at 1 h [3, 20]: 2.4 ± 0.7 %ID/g | tissue uptake at 3 h [3, 20]: 0.21 ± 0.05 %ID/g | tissue uptake at 3 h [3, 21]: 0.05 ± 0.01 %ID/g

O=C(O)CN1CCN(CC(=O)O)CCN(CC(=O)NCCCC[C@H](NC(=O)CCCCCCCNC(=O)NCCCC[C@H](N[C@@H](CCc2ccccc2)C(=O)O)C(=O)N2CCC[C@H]2C(=O)O)C(=O)O)CCN(CC(=O)O)CC1 [[^67Ga]Ga-DOTA-LIS-02] [metal not drawn]
Biodistribution, Intestines [3, 7]: 0.22 ± 0.90 %IA/g | Biodistribution, Liver [3, 7]: 0.76 ± 0.13 %IA/g | Biodistribution, Spleen [3, 8]: 0.51 ± 0.65 %IA/g

O=C(O)CN1CCN(CC(=O)O)CCN(C(CCC(=O)NCCCC[C@H](NC(=O)CCCCCCCNC(=O)NCCCC[C@H](N[C@@H](CCc2ccccc2)C(=O)O)C(=O)N2CCC[C@H]2C(=O)O)C(=O)O)C(=O)O)CC1 (stereo partly shown) [[^67Ga]Ga-NODAGA-LIS-02, metal not drawn]
logD [4]: -5.04 ± 0.09 | fraction unbound at 30 min, 0.1 µM [5, 10]: 0.46 | fraction unbound at 30 min, 0.1 µM [5, 11]: 0.51 | tissue uptake at 1 h ([3]; CD1/nude (Crl:CD1-Foxn nu)): 0.08 ± 0.01 %ID/g | tissue uptake at 3 h ([3]; CD1/nude (Crl:CD1-Foxn nu)): < 0.05 %ID/g | tissue uptake at 1 h [3, 12]: < 0.05 %ID/g | tissue uptake at 3 h [3, 12]: < 0.05 %ID/g | tissue uptake at 1 h [3, 13]: 3.6 ± 0.9 %ID/g | tissue uptake at 3 h [3, 13]: 5.2 ± 0.5 %ID/g | tissue uptake at 1 h [3, 22]: 23 ± 6 %ID/g | tissue uptake at 3 h [3, 22]: 2.3 ± 1 %ID/g | tissue uptake at 1 h [3, 23]: 18 ± 1 %ID/g | tissue uptake at 3 h [3, 23]: 9.6 ± 1.2 %ID/g | tissue uptake at 1 h [3, 14]: 0.11 ± 0.12 %ID/g | tissue uptake at 3 h [3, 14]: < 0.05 %ID/g | tissue uptake at 1 h [3, 15]: < 0.05 %ID/g | tissue uptake at 3 h [3, 15]: < 0.05 %ID/g | tissue uptake at 1 h [3, 16]: 0.31 ± 0.18 %ID/g | tissue uptake at 3 h [3, 16]: 0.15 ± 0.1 %ID/g | tissue uptake at 3 h [3, 17]: < 0.05 %ID/g | tissue uptake at 1 h [3, 18]: < 0.05 %ID/g | tissue uptake at 3 h [3, 18]: < 0.05 %ID/g | tissue uptake at 1 h [3, 19]: 1.7 ± 0.6 %ID/g | tissue uptake at 3 h [3, 19]: 0.49 ± 0.13 %ID/g | tissue uptake at 1 h [3, 20]: 0.63 ± 0.06 %ID/g | tissue uptake at 3 h [3, 20]: 0.11 ± 0.04 %ID/g | tissue uptake at 1 h [3, 21]: < 0.05 %ID/g | tissue uptake at 3 h [3, 21]: < 0.05 %ID/g
